Results from patent US20220252583A1.

Assays:
[1] = molecular target: monoclonal mouse IgG1 anti human CRP antibody B08; assay: swCNT-FET displacement of peptide 80715-Au nanoparticle complex from immobilised B08; CRP 3 pM in PBS
[2] = molecular target: monoclonal mouse IgG1 anti human CRP antibody B08; assay: swCNT-FET displacement of peptide 80715-Au nanoparticle complex from immobilised B08; CRP 24 pM in PBS
[3] = molecular target: monoclonal mouse IgG1 anti human CRP antibody B08; assay: swCNT-FET displacement of peptide 80715-Au nanoparticle complex from immobilised B08; CRP 100 nM in PBS
[4] = molecular target: monoclonal mouse IgG1 anti human CRP antibody B08; assay: swCNT-FET displacement of peptide 80715-Au nanoparticle complex from immobilised B08; CRP 195 pM in PBS
[5] = molecular target: monoclonal mouse IgG1 anti human CRP antibody B08; assay: swCNT-FET displacement of peptide 80715-Au nanoparticle complex from immobilised B08; CRP 381 fM in PBS
[6] = molecular target: monoclonal mouse IgG1 anti human CRP antibody B08; assay: swCNT-FET displacement of peptide 80715-Au nanoparticle complex from immobilised B08; CRP 800 nM in PBS
[7] = molecular target: monoclonal mouse IgG1 anti human CRP antibody B08; assay: swCNT-FET displacement of peptide 80715-Au nanoparticle complex from immobilised B08; CRP 1.56 nM in PBS
[8] = molecular target: monoclonal mouse IgG1 anti human CRP antibody B08; assay: swCNT-FET displacement of peptide 80715-Au nanoparticle complex from immobilised B08; CRP 12.5 nM in PBS

B1: biomarker C-reactive protein (CRP) (protein, human, UniProt P02741 19-224, looked up)
chain: QTDMSRKAFVFPKESDTSYVSLKAPLTKPLKAFTVCLHFYTELSSTRGYSIFSYATKRQDNEILIFWSKDIGYSFTVGGSEILFEVPEVTVAPVHICTSWESASGIVEFWVDGKPRVRKSLKKGYTVGAEASIILGQEQDSFGGNFEGSQSLVGDIGNVNMWDFVLSPDEINTIYLGGPFSPNVLNWRALKYEVQGEVFTKPQLWP
ΔV (V) [1]: -0.013 V | ΔV (V) [2]: -0.016 V | ΔV (V) [3]: -0.024 V | ΔV (V) [4]: -0.017 V | ΔV (V) [5]: -0.009 V | ΔV (V) [6]: -0.027 V | ΔV (V) [7]: -0.02 V | ΔV (V) [8]: -0.022 V
